The values that follow come from PMC6728143, “Distinct mechanisms of microRNA sorting into cancer cell-derived extracellular vesicle subtypes”.

Series [1] has as its target T1, Lupus La protein (La) (Homo sapiens, UniProt P05455 1-408).
T1 sequence: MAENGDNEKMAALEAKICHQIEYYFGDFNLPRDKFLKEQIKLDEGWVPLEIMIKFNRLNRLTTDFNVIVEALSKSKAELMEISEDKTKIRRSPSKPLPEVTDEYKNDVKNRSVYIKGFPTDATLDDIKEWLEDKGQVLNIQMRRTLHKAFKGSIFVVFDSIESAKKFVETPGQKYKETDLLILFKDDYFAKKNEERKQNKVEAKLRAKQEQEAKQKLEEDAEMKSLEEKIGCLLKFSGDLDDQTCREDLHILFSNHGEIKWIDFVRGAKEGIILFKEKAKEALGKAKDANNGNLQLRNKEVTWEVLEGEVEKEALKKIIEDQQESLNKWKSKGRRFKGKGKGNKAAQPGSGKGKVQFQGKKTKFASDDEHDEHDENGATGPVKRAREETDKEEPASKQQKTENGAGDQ
The series can be described thus: EMSA; EMSA: 1 nM RNA, La 250 pM-2 uM; 25 mM Tris pH 8, 100 mM KCl, 1.5 mM MgCl2, 0.2 mM EGTA, 0.05% NP-40, 50 ug/ml heparin; 30 C 30 min, then ice 10 min; 6% gel at 4 C; Hill fit. The following applies: protein: recombinant; tags: N-terminal 6xHis; label: 5' IRDye800CW. Background: In EMSA bound probe runs differently from free probe, usually more slowly.

The target in series [2] is T1, Lupus La protein (La). Described as above. The following applies: protein: recombinant; tags: N-terminal 6xHis; label: 5' IRDye800CW. The source holds these as a separate data set.

B1: miR-122 3'mut (ssRNA)
RNA: UGGAGUGUGACAAUGGUGAAAG
As for B1, the Kd with Lupus La protein (La) [1] amounted to 538 nM.

B2: miR-122 5'mut (ssRNA)
RNA: ACACGUGUGACAAUGGUGUUUG
As to B2, in the series with Lupus La protein (La) [2], the binding signal was ~10 fold lower affinity than WT.

B3: miR-122-5p WT (ssRNA)
RNA: UGGAGUGUGACAAUGGUGUUUG
On to B3, for which the equilibrium dissociation constant (Kd) with Lupus La protein (La) [1] worked out at 4.8 nM.

As usually defined, the Kd is the constant that tells how readily two partners part at equilibrium.
